Laboratory results as given in patent publication US20120207760A1 (THERACLONE SCIENCES, published 2012).

What was measured:
[1] = biological target: T1, hemagglutinin (HA) of influenza A/Solomon Islands/3/06 H1N1 (Influenza A virus A/Solomon …); test: cell-based or functional assay
[2] = biological target: T1, hemagglutinin (HA) of influenza …; test: ELISA, inactivated whole virions coated; transfection supernatant set 5
[3] = biological target: hemagglutinin (HA) of influenza A/Japan/305/57 H2N2 (Influenza A virus A/Japan/305/1957 …, UniProt P03451 16-562); test: as above

B1: TCN-537 (3194_D21) (antibody, V domains shown)
VH: QVQLQQWGSGLLKPSETLSLTCAVYGGSFRDDYWTWIRQPPGKGLEWIGEINHSGRTNYNPSLKSRVTISVDTSLKQFSLKVISVTAADTAVYYCARGTSHVSRYFDWLPPTNWFDPWGQGTQVTVSS
VL: DIVLTQSPGTLSLSPGERATLSCRASQSVSSSYLAWYQQKPGQAPRLVMYGAATRATGIPDRFSGSGSGPDFTLTISRLEPEDFAMYYCQQYGNSPITFGQGTRLEIK
- % Neutralization [1]: 89%
- OD450 [2]: 3.56 OD450
- OD450 [3]: 3.48 OD450

B2: TCN-538 (3206_O17) (antibody, V domains shown)
VH: QITLKESGPTLVKPTQTLTLTCVFSGFSLSITGVRVGWIRQPPGKALEWLALISWDDEKHYSPSLQSRLTITKDTSKNQVVLTMTNLDPVDTATYYCARSTDRGHVLRYFGWMLPGDAFDVWGQGTMVTVSS
VL: DIVMTQSPDFLPVSLGERATINCKSSQRVLYSSNNKNYLAWYQLKPGQPPKLIIYWASTRESGVPDRFSGSGSGTEFTLTISSLQAEDVAVYYCQQYYSRPYTFGQGTKLEIK
- % Neutralization [1]: 35%
- OD450 [2]: 3.59 OD450
- OD450 [3]: 3.37 OD450

B3: TCN-539 (5056_A08) (antibody, V domains shown)
VH: QVQLVESGGGVVQPGRSLRLSCAASEITFITYAMHWVRQAPGKGLEWVALISDDGSNKFYADSVKGRFTISRDNSKNTLYLQMNSLRAEDTAAYYCAREGVYFDSGTYRGYFDYWGQETLVTVSS
VL: EIVLTQSPATLSLSPGERATLSCRASQSVSSYLAWYQQKPGQAPRLLIYDASNRATGIPARFSGSGSGTDFTLTISSLEPEDFAVYYCQQRSHWPPITFGQGTRLEIK
- % Neutralization [1]: 97%
- OD450 [2]: 0.07 OD450
- OD450 [3]: 0.07 OD450

B4: TCN-540 (5060_F05) (antibody, V domains shown)
VH: QVQLVQSGGGVVQPGRSLRLSCAASGFTFSSYAMHWVRQAPGKGLEWVAIISYDGNDQYYTDSVKGRFTISRDSSKVYLQMHRLRPEDTAVYYCAKEFETSGYFHGSFDYWGQGILVTVSS
VL: QSALTQPASVSGSPGQSITISCTGTSSDVGGYNYVSWYQQHPGKAPKLLIYEVTNWPSGVSNRFSGSKSGNTASLTISGLQAEDEADYYCSSYAGSSTWVFGGGTRVTVL
- % Neutralization [1]: 100%
- OD450 [2]: 0.09 OD450
- OD450 [3]: 3.61 OD450

B5: TCN-542 (5079_A16) (antibody, V domains shown)
VH: QVQLQESGPGLVKPSQTLSLTCTVSGGSISSGNYYWNWVRQHPGKGLEWIGYIYYRGSTFYNPSLKSRVTISIDTSKNQFSLRLSSVTAADTAVYYCAKDTRSSLDNYQYGMDVWGQGTTVTVSS
VL: QTVVTQEPSLTVSPGGTVTLTCASSTGAVTSSYFPNWFQQKPGQAPRPLIYSTTIRHSWTPARFSGSLLGGKAALTLSGVQPEDEADYYCLLYSGGDPVAFGGGTKLTVL
- % Neutralization [1]: 98%
- OD450 [2]: 3.6 OD450
- OD450 [3]: 0.07 OD450

B6: TCN-543 (5081_G23) (antibody, V domains shown)
VH: QVHLVQSGAEVRKPGDSVKVSCKTSGYTFSTYPVAWVRQVPGQGLEWMGWISTYNGNTNFAQNFQGRVTLTTDTTTNTAYMEVRSLKFDDTAVYYCARVEGSYRDFWNNQNRFDPWGQGTLVTVSS
VL: SYVLTQPPSVSVAPGQTARISCGGSNIGGKSVHWYQQKPGQAPVLVVYDDSGRPSGIPERFSGSNSGDTATLTISRVEAGDEADYFCQVWDNFGGVFGTGTKVTVL
- % Neutralization [1]: 100%
- OD450 [2]: 3.63 OD450
- OD450 [3]: 3.64 OD450

B7: TCN-544 (5082_A19) (antibody, V domains shown)
VH: QVQLQESGPGLVKPSETLSLTCTVSRGSIGHYFWSWIRQPPGKGLEWIGYISYSGSTKYNPSLRSRVTISVDTSKNQFSLNLNSVTATDTALYYCAREDYDILTGAGPGMEVWGQGTTVTVSS
VL: QSMLTQPPSASGTPGQRVTISCSGSSSNIGSNTVNWFKHLPGTAPKLLIYRNDLRPSGVPDRFSGSKSGTSASLAISGLQSEDEADYYCATWDDSLNGFYVFGTGTKVTVL
- % Neutralization [1]: 95%
- OD450 [2]: 0.07 OD450
- OD450 [3]: 0.07 OD450

B8: TCN-545 (5082_I15) (antibody, V domains shown)
VH: QVQLQQWGAGLLKPSETLSLSCAVFGGSFSDYYWTWIRQPPGKGLEWIGEIKHSGRTNYNPSLESRVTISVDTSKNQFSLKLSSVTAADTAIYYCARGTDPDTEGYCRSGSCSAFDFWGQGTLVTVSS
VL: EIVLTQSPGTLSLSPGERATLSCRASHFVNYRSLAWYQQTPGQVPRLLIYGASTRATGIPDRFSGSGSGTDFTLTISRLEPEDFAVYFCQQYGGSPRYTFGQGTRLEIK
- % Neutralization [1]: 98%
- OD450 [2]: 1.36 OD450
- OD450 [3]: 0.1 OD450

B9: TCN-546 (5089_L08) (antibody, V domains shown)
VH: QVQLQQWGAGLLKPSETLSLTCGVYGGSLSDYYWSWIRQPPGKGLEWIGEINHSGGTNYNPSLKRRVTISVDTSKKQFSLKMNSVTAADTAVYYCARGTDPDTEVYCRAGNCAAFDFWGQGTLVTVSS
VL: EIVLTQSPGTLSLSPGERATLSCRASHFVIGRAVAWYQQKPGQAPRLLIYGASSRATGIPDRFSGSGSGTDFTLTISRLETEDFAVFYCQHYGSSPRYAFGQGTKLEIK
- % Neutralization [1]: 0%
- OD450 [2]: 3.67 OD450
- OD450 [3]: 0.07 OD450

B10: TCN-551 (5243_D01) (antibody, V domains shown)
VH: EVQLVQSGSEVKKPGESLKISCKGSGYSFSNYWIGWVRHMPGKGLEWMGIIYPGDSDTRYSPSFQGQVTMSADKSSSTVYLQWSSLKASDTAIYYCARRGGHSFGYGSGGDTHSEFDSWGQGTLVTVSS
VL: QSVLTQSPSVSAAPGQKVTISCSGSDSNIGDYFVCWYQHLPGKPPQLLIYENNKRPSGIPDRFSGSKSGTSATLGITGIQTGDEADYYCATWDGSLSAWVFGGGTKLTVL
- % Neutralization [1]: 100%
- OD450 [2]: 3.65 OD450

B11: TCN-552 (5249_I23) (antibody, V domains shown)
VH: QVQVVQSGAEVKKPGSSVRVSCQASGGTFMNYAIIWVRRAPGQGLEWMGGIIPVFPTPNYAQMFQGRVTISTDESRSTSFLELTNLRYEDTAVYYCARRIYHGGNSGFDFWGQGTLVTVSS
VL: EIVLTQSPATLSLSPGERATLSCRASQSVGNYLAWYQQKPGQAPRLLIYDSSNRAPGIPARFSGSGSGTDFTLTISSLAPEDFAVYYCQQRSKWPPMYSFGHGTKLEIK
- % Neutralization [1]: 57%
- OD450 [2]: 3.61 OD450
- OD450 [3]: 2.68 OD450

B12: TCN-553 (5261_C18) (antibody, V domains shown)
VH: QVQVVQSGTEVKKPGSSVKVSCQTSGGRFMSYAITWVRQAPGQGLEWMGGIVPVFGTANYAQKFQGRVTITTDDSTRTAYMELSSLRSEDTAVYYCGFRYGSGYGFDSWGQGTLVTVSS
VL: EIVLTQSPGTLSLSPGERATLSCRASQSVSSSYLAWYQKKPGQAPRLLIYGASTRATGIPDRFTGSGSGTDFTLSISRLEPEDFAVYYCQHFGTSVFTFGGGTKVEIK
- % Neutralization [1]: 87%
- OD450 [2]: 3.56 OD450
- OD450 [3]: 3.28 OD450

B13: TCN-554 (5277_M05) (antibody, V domains shown)
VH: QVQLVQSGADLKKPGASVKVSCKASGYTFTDYYIHWVRQAPGQGLEWMGWINPESGDTKYAQKFQGRVTMTRDTSITTAYMELGRLRSDDTAVYYCARDVSTTWSWFAPWGQGTLVTVSS
VL: DIVMTQSPDSLAVSLGERATINCRSSQSIFHNSNNENYLAWYQQKPGQPPKLLIYWASTRESGVPDRFSGSGSGTDFTLTISSLQAEDVAVYFCQQYYNAPLTFGGGTKVEIK
- % Neutralization [1]: 42%
- OD450 [2]: 0.18 OD450
- OD450 [3]: 0.11 OD450

B14: TCN-547 (5092_F11) (antibody, V domains shown)
VH: QVQLQESGPGLVKPSQTLSLTCTVSGDSISSVDHYWSWIRQHPVKGLEWIGFMYYSASTYYNPSLKSRVTISTDTSKNQFSLRLSSVTAADTAVYYCARGTCAGDCSLHYYYYGLDVWGQGRTVTVSS
VL: DIQMTQSPSSLSASVGDRVTITCRASQSISSYLNWYQHKPGKAPKVLMYAVSILQSGVPSRFSGSGSGADFTLTISSLQPEDFATYYCQQSYSSPLTFGGGTKVEIK
- OD450 [2]: 0.09 OD450
- OD450 [3]: 0.09 OD450

B15: TCN-548 (5092_P01) (antibody, V domains shown)
VH: QVQLQESGPGLVKPSETLSLTCTVSSGPMSDYYWSWIRQPPGKGLEWIGHVSVSHGGRTKSNPSVMSRVTISVETSKNQFSLKLTSVTAADTAVYYCARLNYYDRSGYHSPDGPSNNWFDPWGQGTLVTVSS
VL: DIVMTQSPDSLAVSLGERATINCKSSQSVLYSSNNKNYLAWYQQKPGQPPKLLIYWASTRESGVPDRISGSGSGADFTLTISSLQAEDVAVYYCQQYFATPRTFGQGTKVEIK
- OD450 [2]: 0.13 OD450
- OD450 [3]: 0.09 OD450

B16: TCN-549 (5092_P04) (antibody, V domains shown)
VH: QVQLVQSGAEVKKPGASVKVSCKASGYTFTGYYMHWVRQAPGQGLEWMGWINPNSGDTNYAQKFQGRVTMTRDTSITTAYMELSSLRSDDTAVYYCARDSPYSSSWSFFDYWGQGPLVTVSS
VL: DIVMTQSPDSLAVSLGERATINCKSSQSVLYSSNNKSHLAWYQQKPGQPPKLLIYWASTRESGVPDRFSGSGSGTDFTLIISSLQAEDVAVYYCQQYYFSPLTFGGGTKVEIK
- OD450 [2]: 0.09 OD450
- OD450 [3]: 0.08 OD450

B17: TCN-550 (5096_F06) (antibody, V domains shown)
VH: QVQLQESGPGLVKPSETLSLTCTVSGASINSHYWSWIRQPPGKGLEWIGYVYYSGSTTYNPSLKSRVTLSVDTSKNQFSLNLSSVTAADTAFYYCARHPYDVLTGSGDWFDPWGQGTLVTVSS
VL: SYVLTQAPSVSVAPGQTARITCGGNAIGSKKVHWYQHKAGQAPVLVVYDDTDRPSGIPERFSGSNSWSTATLTINRVEAGDEADYYCQVWDFTIDHVVFGGGTKLTVL
- OD450 [2]: 0.13 OD450
- OD450 [3]: 0.08 OD450

B18: TCN-556 (5089_K12) (antibody, V domains shown)
VH: QVQLVQSGAEVKKPGASVKVSCKASGYTFIGYDMHWVRQAPGQGLEWMGWINAKRGGTNYAQKFQGRVTMTRDTSISTAYMELNSLRSDDTAVYYCARGVGSRTTIFGVLNPEFDYWGQGTLVTVSS
VL: QSALTQPPSASGSPGQSVTISCTGSSSDVGGYDYVSWYQQHPGKAPKLLIYEVTKRPSGVPDRFSGSKSGNTASLTVSGLQAEDEADYYCSSYAGNYNHVFGPGTKVTVL
- OD450 [2]: 3.64 OD450
- OD450 [3]: 3.64 OD450

B19: TCN-557 (5081_A04) (antibody, V domains shown)
VH: QVQLVQSGAEVKKPGASVKVSCKASGHTFTGYYIHWVRQAPGQGLEWMGWINPDSGATSSAQNFQGRVTMTGDTSSSTAYMELSRLSFDDTAVYYCARVLFTSPFDFWGEGTLVTVSS
VL: QAVVTQEPSLAVSPGGTVTLTCGSSTGAVTRGHYPYWFQQKPGQAPRALIYDSAGNRHSWTPARFSGSLLGGKAALTLSGAQPEDEAEYYCLLSYSGVWVFGGGTKLTVL
- OD450 [2]: 3.58 OD450
- OD450 [3]: 3.59 OD450

B20: TCN-558 (5248_H10b) (antibody, V domains shown)
VH: QVQLVQSGSEVKKPGTSVKVSCTASGSVFTNYGISWVRQAPGQGLEWMGGIIPLFGAAKYAQKFQGRVTITADESTKTVYMELSRLTSKDTAIYFCAKAPRVYEYYFDQWGQGTPVTVSS
VL: EIVMTQFPATLSVSPGERVTLSCRASQSVSNNLAWYQQKPGQPPRLLIYDASTRATGVPAKFSGTGSGTEFTLSISSLQSEDFAVYYCQQYHNWPPSYSFGLGTKLEIK
- OD450 [2]: 3.52 OD450
- OD450 [3]: 3.31 OD450
